Results reported in patent US12428456B2, “Peptide directed protein knockdown” (University of British Columbia, priority 2012, dated 2025).
“Also recorded” adds a separate entry of the source. No end group written: not given here.

Experiments:
[1] = molecular target: T1, α-synuclein (Homo sapiens, UniProt P37840); test: Knockdown of co-expressed α-synuclein in HEK cells (immunoblot); assay type: cell-based; conditions: for effect on α-synuclein levels: co-expression at various ratios, 48 hours
T1 construct: expressed in transfected cells; host or cells: HEK293
Description: Plasmid construction. CTS-GFP was constructed by introducing a BamHI fragment containing the CTS coding sequence into the pEGFP-N2 vector (Clontech #6081-1). The CTS coding sequence was prepared by annealing custom design oligonucleotides (Integrated DNA Technologies). mCTS-GFP was constructed by performing single point mutations to CTS-GFP plasmid. FLAG-βsyn36 was constructed by annealing oligonucleotides and inserting into pcDNA3.0 using HindIII and NotI restriction sites (HindIII, Fermentas, FD0504; NotI Fermentas, FD0594). FLAG-βsyn36-CTS was constructed by PCR using FLAG-βsyn36 as template and adding CTS coding sequence to the reverse primer. FLAG-cDAPK1 was constructed by deleting the autoinhibitory domain from WT-DAPK1 (789-936 bp). NR2Bct (1242-1342aa) was prepared by PCR using NR2B expression vector. NR2Bct-CTS fragment was obtained by inserting NR2Bct fragment into CTS-GFP using EcoRI and BglII restriction sites (EcoRI, Fermentas, FD0274; BglII, Fermentas, FD0084), then PCR, introducing NcoI and EcoRI to the fragment (NcoI, Fermentas, FD0574). His-TAT-NR2Bct-CTS was constructed by cloning NR2Bct-CTS into the pTAT/pTAT-HA plasmids (generous gift of S. Dowdy, Washington University, St. Louis, MO^31) using NcoI and EcoRI restriction sites. His-TAT-NR2Bct was constructed by mutating the first amino acid in CTS sequence into a stop codon. HA-NR2Bct-CTS was constructed by PCR using His-TAT-NR2Bct-CTS as template, with BamHI site in both forward and reverse primers, and then inserted into pcDNA3.0 with BamHI (Fermentas, FERFD0054). HA-NR2Bct-CTSm was constructed by point mutations.
(§1) Cell culture, transfection and treatments. HEK293 cells and COS7 cells were cultured in DMEM (Sigma, D6429-24X500ML) supplemented with 10% Fetal Bovine Serum (Invitrogen, 12483020). Cells were grown to 80% confluence in 6-well plates before transiently transfected with Lipofectamine 2000 (Invitrogen, 11668019), as according to the manufacturer's protocols. Cells were transfected for either 24 or 48 hours at 37° C. before harvesting for biochemical analyses. For experiments involving TAT or His-TAT peptides, unless otherwise specified, peptides were added 1 hour prior to NMDA insult.
(§2) Immunoblotting. Immunoblotting assays were carried out as previously described^36. Briefly, proteins were extracted from neurons using a lysis buffer composed of 150 mM NaCl, 50 mM Tris, pH 7.4, 0.1% SDS, 1% NP-40, 0.5% sodium deoxycholate, 1 mM EDTA, 1 mM Na3VO4, and proteinase inhibitor mixture (Thermo Fisher, PI78442). Samples were separated on 10% SDS-PAGE gels, transferred to polyvinylidene difluoride (PVDF) membrane, and immunoblotted with respective antibodies. Blots were enhanced with chemiluminescence detection reagent kit (Fisher, 32106) and visualized with Bio-Rad imager and Quantity One software. Signal intensities from each band was quantified with Bio-Rad Image Lab software, and the bands were analyzed relative to their controls from the same membrane and experiment.

[2] = molecular target: T2, DAPK1 (Rattus norvegicus, UniProt F1LNN8); test: Knockdown of native DAPK1 in cultured cortical neurons, NMDA stimulation (immunoblot); assay type: cell-based; conditions: for reduction of activated DAPK1 on application alone: NR2B-CTS or Pep-1 alone; for levels of endogenous DAPK1 reduced by: with Pep-1 (1:4); for levels of endogenous DAPK1 reduced by / effect on DAPK1 in cytosolic fraction / effect on DAPK1 in mitochondrial fraction / effect on DAPK1 in nuclear fraction: 2 hours after washout; for effect on DAPK1 in cytosolic fraction / effect on DAPK1 in mitochondrial fraction / effect on DAPK1 in nuclear fraction: 1 hr prior to and during NMDA
T2 construct: decreased the level of endogenous DAPK1 in cultured cortical neurons following NMDA treatment; endogenous in cells; host or cells: primary rat cortical neurons (E18, 14-18 DIV)
Description: as §1
(§3) Primary culture of cortical neurons. Dissociated cultures of rat cortical neurons were prepared from Sprague Dawley rat embryos collected from euthanized mothers 18 days after fertilization as previously described^35. Briefly, hippocampi and cerebral cortices were extracted from embryos and incubated for 30 min in 0.25% trypsin-EDTA. Digested tissues were dissociated by trituration and plated on poly-D-lysine-coated (Sigma, P7280) plates. Plating medium consisted of Neurobasal Media (Invitrogen, 21103-049) supplemented with B27 (Invitrogen, 17504044), glutamic acid (Sigma, G8415) and GlutaMax (Invitrogen, 35050-061). After 2 days, 2/3 of the media was replaced with fresh Neurobasal feeding media consisting of Neurobasal Media, B27 and GlutaMax. Cultures were maintained at 37° C. in a humidified 5% CO2 atmosphere. Mature neurons (14-18 days in vitro (DIV)) were used for experiments.
as §2
Cellular fractionation. Cytoplasm/nuclei fractionation was performed on cultured cortical neurons (6.0*10^6 cells/100 mm dish). Briefly, cells were washed with ice cold PBS and rocked in lysis buffer for 30 min. Cells were then collected and centrifuged to obtain a rough cytoplasmic and nuclear fraction. Supernatant was collected and further centrifuged to obtain purified cytosolic fraction. The original pellet was washed and vortexed to obtain a nuclear lysis. Mitochondrial fractionation was performed as described in the Pierce Mitochondria Isolation Kit for Cultured Cells (Thermo Scientific, 89874) user guide. Purity was assessed by immunoblotting for the presence of LB1 (nucleus only), HSP90 (cytosol only) and VDAC1 (mitochondria only).

[3] = molecular target: T3, α-synuclein (Rattus norvegicus, UniProt P37377); test: Degradation of endogenous α-synuclein in cultured neurons (immunoblot); assay type: cell-based; conditions: for effect on endogenous α-synuclein level: 25 μM bath applied, 4 hours
T3 construct: endogenous in cells; host or cells: primary rat neurons
Description: as §3, §2

[4] = molecular target: T4, PSD95 (Rattus norvegicus, UniProt P31016); test: Degradation of endogenous PSD95 in cultured neurons (immunoblot); assay type: cell-based; conditions: for effect on endogenous PSD95 level: 25 μM bath applied
T4 construct: endogenous in cells; host or cells: primary rat neurons
Description: as §3, §2

[5] = molecular target: T2, DAPK1; test: DAPK1 knockdown in brain, rat MCAO focal ischemia model (immunoblot, immunohistochemistry); assay type: in vivo; conditions: 10 mg/kg i.v.
Description: as §2
Middle cerebral arterial occlusion (MCAO). All animal experiments were performed according to protocols approved by the University of British Columbia Committee on Animal Care. Adult naïve male Sprague-Dawley rats (300-350 g, Charles River) were group housed (3-4 animals/cage) in 12 hr:12 hr light-dark cycles and had free access to rat pellet chow and water prior to surgery. Reversible MCAO with suture-insertion method was performed as described previously^37. Briefly, a nylon suture with a blunted tip was entered through the right external carotid artery of anesthetized rats and advanced to the right internal carotid artery until the right MCA was occluded. After 60 min of occlusion, the rat was reanesthetized to facilitate the removal of the occlusion. Body temperature was maintained at between 36.5 and 37.5° C. throughout the surgical procedure with a heating pad. Peptides (10 mg/kg) or vehicle control (saline; 1 ml/kg) was injected via the jugular vein. Rats were then sewn up and allowed to recover until tissue collection.
Immunohistochemistry. Rats were anesthetized and perfused with double-filtered saline and 4% paraformaldehyde (PFA) in PBS. Brains were collected, immersed in 4% PFA before subjected to cryoprotection by 30% sucrose/PBS. After the brains had sunk, they were flash frozen with dry ice before overnight freezing in −80° C. They were then sliced at […] with a cryostat, and stored in 0.1 μM PB (sodium phosphate dibasic and sodium phosphate monobasic). Prior to staining, slices were washed 3×10 min with 0.1 μM PB, permeablized and blocked in 0.1 μM PB with 1% BSA and 0.2% Triton X-100 for 30 min, and stained with anti-DAPK1 (1:100) at 4° C. for 3 days. They were then washed and stained with Alexa 488 (1:1000) at 4° C. overnight before washing and mounting.

T2 sequence (F1LNN8 1-1430): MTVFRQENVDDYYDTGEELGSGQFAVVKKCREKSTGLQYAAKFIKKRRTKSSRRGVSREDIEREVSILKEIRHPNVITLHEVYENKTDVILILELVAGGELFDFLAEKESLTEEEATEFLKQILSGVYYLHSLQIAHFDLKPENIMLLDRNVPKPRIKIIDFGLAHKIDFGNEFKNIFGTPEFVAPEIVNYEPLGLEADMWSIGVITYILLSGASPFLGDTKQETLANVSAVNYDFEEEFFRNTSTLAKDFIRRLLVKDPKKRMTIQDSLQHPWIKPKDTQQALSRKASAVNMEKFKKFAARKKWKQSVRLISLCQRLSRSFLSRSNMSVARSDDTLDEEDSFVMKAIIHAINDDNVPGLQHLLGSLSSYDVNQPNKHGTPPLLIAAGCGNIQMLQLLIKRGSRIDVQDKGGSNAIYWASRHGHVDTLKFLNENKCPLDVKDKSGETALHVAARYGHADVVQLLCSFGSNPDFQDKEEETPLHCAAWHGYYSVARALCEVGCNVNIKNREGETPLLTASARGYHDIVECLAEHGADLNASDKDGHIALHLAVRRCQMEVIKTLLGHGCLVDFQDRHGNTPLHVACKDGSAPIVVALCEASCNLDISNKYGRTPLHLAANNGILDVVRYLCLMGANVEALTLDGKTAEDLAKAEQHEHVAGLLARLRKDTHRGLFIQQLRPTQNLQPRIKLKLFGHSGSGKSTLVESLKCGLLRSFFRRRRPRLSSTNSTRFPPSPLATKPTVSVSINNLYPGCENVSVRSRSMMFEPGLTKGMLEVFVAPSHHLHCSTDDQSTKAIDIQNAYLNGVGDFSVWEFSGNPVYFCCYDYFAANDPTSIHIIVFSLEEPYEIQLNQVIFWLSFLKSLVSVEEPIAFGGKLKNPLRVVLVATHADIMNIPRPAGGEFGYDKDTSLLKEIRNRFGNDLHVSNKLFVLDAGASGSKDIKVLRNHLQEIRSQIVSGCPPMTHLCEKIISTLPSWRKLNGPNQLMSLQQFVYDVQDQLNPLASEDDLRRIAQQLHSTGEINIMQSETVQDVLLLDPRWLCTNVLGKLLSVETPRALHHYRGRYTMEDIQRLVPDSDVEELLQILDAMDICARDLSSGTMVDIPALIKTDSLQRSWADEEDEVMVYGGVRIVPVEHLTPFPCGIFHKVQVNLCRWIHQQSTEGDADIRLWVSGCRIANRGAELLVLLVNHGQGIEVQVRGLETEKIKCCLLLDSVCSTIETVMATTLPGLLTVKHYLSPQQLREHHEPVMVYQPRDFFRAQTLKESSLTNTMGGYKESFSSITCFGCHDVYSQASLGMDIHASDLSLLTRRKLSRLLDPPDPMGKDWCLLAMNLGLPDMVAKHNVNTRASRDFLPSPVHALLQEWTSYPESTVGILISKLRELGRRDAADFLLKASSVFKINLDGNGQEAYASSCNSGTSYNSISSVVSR
T4 sequence (P31016 whole entry): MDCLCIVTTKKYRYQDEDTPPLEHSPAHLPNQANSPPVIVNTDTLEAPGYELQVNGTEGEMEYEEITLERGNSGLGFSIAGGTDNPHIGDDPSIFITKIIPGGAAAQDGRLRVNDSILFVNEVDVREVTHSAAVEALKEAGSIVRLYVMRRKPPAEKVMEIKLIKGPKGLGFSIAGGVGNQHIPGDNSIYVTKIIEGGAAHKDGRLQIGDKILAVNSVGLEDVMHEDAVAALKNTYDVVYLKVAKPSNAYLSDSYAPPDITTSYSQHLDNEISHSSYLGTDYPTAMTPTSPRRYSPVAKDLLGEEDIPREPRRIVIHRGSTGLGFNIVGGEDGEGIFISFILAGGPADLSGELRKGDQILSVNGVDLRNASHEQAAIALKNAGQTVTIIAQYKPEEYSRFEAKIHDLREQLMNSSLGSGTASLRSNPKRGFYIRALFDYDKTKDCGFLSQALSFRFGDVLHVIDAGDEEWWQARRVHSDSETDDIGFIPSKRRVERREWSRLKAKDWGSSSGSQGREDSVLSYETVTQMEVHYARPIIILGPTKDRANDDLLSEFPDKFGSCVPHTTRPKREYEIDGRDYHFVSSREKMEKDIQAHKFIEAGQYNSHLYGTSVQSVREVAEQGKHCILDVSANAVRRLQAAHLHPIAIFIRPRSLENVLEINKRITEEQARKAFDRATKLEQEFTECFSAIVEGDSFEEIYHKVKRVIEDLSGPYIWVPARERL

Substance: FLAG-βsyn36-CTS: expressed FLAG-tagged peptide of β-synuclein 36-45 and CTS (untagged: SEQ ID NO:1 GVLYVGSKTRKFERQKILDQRFFE) ({FLAG}-GVLYVGSKTRKFERQKILDQRFFE)
- effect of lysosome inhibitor on peptide-induced α-synuclein reduction ([1]; +NH4Cl 20 mM): completely rescued; also recorded: prevented
- effect on α-synuclein levels [1]: significantly decreased α-synuclein levels in a dose-dependent manner
- effect on α-synuclein levels ([1]; listed as βsyn36-CTS): constitutively reduced α-synuclein in a dose-dependent manner
- α-synuclein reduced by, of control α-synuclein levels ([1]; co-expression ratio 2:1, 48 hours): 42.89%±11.34%
- α-synuclein reduced by, of control α-synuclein levels ([1]; co-expression ratio 4:1, 48 hours): 46.49%±5.72%
- α-synuclein reduced by, of control α-synuclein levels ([1]; co-expression ratio 8:1, 48 hours): 52.18%±6.61%
- α-synuclein reduced by, of control α-synuclein levels ([1]; co-expression ratio peptide:α-synuclein 1:1, 48 hours): 32.40%±7.14%

Substance: FLAG-βsyn36: expressed FLAG-tagged β-synuclein 36-45 peptide without CTS ({FLAG}-GVLYVGSKTR; UniProt Q16143 36-45, looked up, fragment) [reference compound]
- effect on α-synuclein levels [1]: did not significantly affect

Substance: KETWWETWWTEWSQPKKKRKV [Pep-1, short amphipathic intracellular delivering carrier peptide, reference compound]
- reduction of activated DAPK1 on application alone ([2]; NMDA): not produced

Substance: KKNRNKLRRQHSYKFERQKILDQRFFE (Knockdown peptide targeting DAPK1, without TAT protein transduction domain) [NR2B-CTS, synthetic DAPK1 degradation targeting peptide without TAT, delivered with Pep-1]
- levels of endogenous DAPK1 reduced by ([2]; 10 μM, NMDA): 33.60±14.48%
- levels of endogenous DAPK1 reduced by ([2]; 25 μM, NMDA): 43.65±2.05%
- levels of endogenous DAPK1 reduced by ([2]; 50 μM, NMDA): 63.88±6.18%
- reduction of activated DAPK1 on application alone ([2]; NMDA): not produced
- effect on DAPK1 levels in non-NMDA treated neurons ([2]; delivered by Pep-1, no NMDA): did not affect DAPK1 levels
- DAPK1 decrease ([2]; with Pep-1, 1 hour following NMDA and peptide washout): 58.27±5.48%
- DAPK1 decrease (maximum level) ([2]; with Pep-1, 2 hours after washout): 78.79±1.15%
- effect of NH4Cl on DAPK1 reduction ([2]; with Pep-1, NMDA, +NH4Cl 20 mM): fully rescued

Substance: YGRKKRRQRRRGVLYVGSKTRKFERQKILDQRFFE (Knockdown peptide targeting alpha-synuclein, with TAT protein transduction domain) [TAT-βsyn-CTM, synthetic cell-penetrating α-synuclein targeting peptide]
- effect on endogenous α-synuclein level [3]: significantly degraded native α-synuclein; also recorded: specifically decreased the targeted endogenous α-synuclein
- effect of 3-methyladenine on α-synuclein reduction ([3]; 25 μM, +3-MA 10 mM): not by inhibition of macroautophagy with 3-methyladenine; also recorded: significantly decreased native α-synuclein in the presence of 3-MA
- effect of NH4Cl on α-synuclein reduction ([3]; 25 μM, +NH4Cl 20 mM): rescued; also recorded: prevented
- effect on endogenous PSD95 level [4]: without affecting the non-intended target PSD95; also recorded: without affecting the level of unrelated control proteins PSD-95

Substance: YGRKKRRQRRRKKNRNKLRRQHSYKFERQKILDQRFFE (Knockdown peptide targeting DAPK1, with TAT protein transduction domain) [TAT-NR2B-CTS]
- effect of siRNA-mediated Lamp2a knockdown on DAPK1 knockdown ([2]; 25 μM peptide, NMDA, Lamp2a siRNA 60 pmol 3 days): inhibition of TAT-NR2BCTM induced knockdown of DAPK1
- effect on DAPK1 in cytosolic fraction ([2]; 25 μM): reduced the levels of DAPK1
- effect on DAPK1 in mitochondrial fraction ([2]; 25 μM): reduced the levels of DAPK1
- effect on DAPK1 in nuclear fraction ([2]; 25 μM): reduced the levels of DAPK1
- effect on DAPK1 in cytosolic fraction ([2]; 25 μM, listed as TAT-NR2BCTM): significantly decreased DAPK1
- effect on DAPK1 in mitochondrial fraction ([2]; 25 μM, listed as TAT-NR2BCTM): significantly decreased DAPK1
- effect on DAPK1 in nuclear fraction ([2]; 25 μM, listed as TAT-NR2BCTM): significantly decreased DAPK1
- effect of macroautophagy inhibitor on DAPK1 knockdown ([2]; NMDA, +3-MA): did not alter
- effect of lysosomal inhibitor on DAPK1 reduction ([2]; synthetic peptide 25 μM, NMDA, +NH4Cl 20 mM): rescued; also recorded: prevented
- effect on DAPK1 level after NMDA treatment ([2]; synthetic peptide 25 μM, prior to and during NMDA): significant reduction of DAPK1; also recorded: decreased native DAPK1
- level of DAPK1 in ischemic side, of that on the contralateral side ([5]; 1 hour following reperfusion, 60 min MCAO): 43.3%
- region specificity of DAPK1 knockdown (immunohistochemistry) ([5]; brain sections, listed as TAT-NR2BCTM): specific to stroke-damaged areas; also recorded: selectively reduced the level of DAPK1
- effect on DAPK1 levels in brain tissues (immunoblot) ([5]; ischemic vs contralateral side, listed as TAT-NR2BCTM): significant reduction in DAPK1 levels only in the ischemic side of the brain; also recorded: specific knockdown of DAPK1 only in tissues collected from the infract side

Substance: YGRKKRRQRRRKLSSIESDVKFERQKILDQRFFE (targeted knockdown peptide targeting PSD95, with TAT PTD) [TAT-NR2B9c-CTM, PSD-95 targeting peptide]
- effect on endogenous α-synuclein level [3]: without perturbing untargeted protein α-synuclein
- effect on endogenous PSD95 level [4]: significantly reduced PSD95; also recorded: effectively degraded endogenous PSD95
- effect of NH4Cl on PSD95 reduction ([4]; 25 μM, +NH4Cl): rescued PSD95 degradation
